The text below walks through data of article PMC8206089, “Split NanoLuc technology allows quantitation of interactions between PII protein and its receptors with unprecedented sensitivity and reveals transient interactions” (Scientific Reports, 2021).

Where a chain is given by its changes, count along the chain named. Names and notes keep the numbering of the source.

Assay [1] has as its target T1, NAGK-SmBiT (N-acetyl-L-glutamate kinase fused to Small BiT) (Synechocystis sp. PCC 6803, UniProt P73326 1-297).
T1 construct: N-acetyl-L-glutamate kinase (NAGK), Synechocystis sp; PCC 6803; Cloned into pTEV5 (NdeI, BamHI); source: E. coli Lemo21, purified (Ni-NTA HisTrap); not shown: SmBiT (after a 16 amino acids flexible linker), C-terminal, kept
T1 sequence (looked up): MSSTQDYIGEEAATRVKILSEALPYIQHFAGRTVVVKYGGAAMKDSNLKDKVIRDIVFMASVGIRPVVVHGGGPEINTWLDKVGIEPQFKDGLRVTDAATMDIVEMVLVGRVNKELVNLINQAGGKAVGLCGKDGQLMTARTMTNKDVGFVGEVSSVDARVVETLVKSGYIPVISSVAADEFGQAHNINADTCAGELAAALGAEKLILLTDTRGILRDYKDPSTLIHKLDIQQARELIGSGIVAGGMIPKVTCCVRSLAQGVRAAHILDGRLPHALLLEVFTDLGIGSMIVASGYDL
As to the kind of experiment: split reporter (BiFC, NanoBiT); in solution; NAGK-SmBiT titrated to 10 pM PII-LgBiT; 2 mM ADP and 2 mM NAG; 40 min at 30 °C. The note with it: both partners purified.

Assay [2] has as its target T1, NAGK-SmBiT (N-acetyl-L-glutamate kinase …). The assay can be described thus: split reporter (BiFC, NanoBiT); in solution; NAGK-SmBiT titrated to 10 pM PII-LgBiT; 2 mM ADP and 50 mM NAG; 40 min at 30 °C. The note with it: both partners purified.
For assay [3] the target is unchanged. As to the kind of experiment: split reporter (BiFC, NanoBiT); in solution; NAGK-SmBiT titrated to 10 pM PII-LgBiT variant; 2 mM ADP; 40 min at 30 °C; apparent KD. The following applies: both partners purified.
Assay [4] has the same target. As to the kind of experiment: split reporter (BiFC, NanoBiT); in solution; NAGK-SmBiT titrated to 10 pM PII-LgBiT variant; 2 mM ATP and 2 mM NAG; 40 min at 30 °C. The note with it: both partners purified.
Assay [5] has the same target. The assay can be described thus: split reporter (BiFC, NanoBiT); in solution; NAGK-SmBiT titrated to 10 pM PII-LgBiT variant; 2 mM ATP; 40 min at 30 °C; apparent KD. The note with it: both partners purified.
For assay [6] the target is unchanged. The assay can be described thus: split reporter (BiFC, NanoBiT); in solution; NAGK-SmBiT titrated to 10 pM PII-LgBiT variant; 2 mM ATP and 50 mM NAG; 40 min at 30 °C. The note with it: both partners purified.
Assay [7] shares this target. The assay can be described thus: split reporter (BiFC, NanoBiT); in solution; NAGK-SmBiT titrated to 10 pM PII-LgBiT; 2 mM ATP, 2 mM Arg and 2 mM NAG; 40 min at 30 °C. The following applies: both partners purified.
Assay [8] has the same target. The assay can be described thus: split reporter (BiFC, NanoBiT); in solution; NAGK-SmBiT titrated to 10 pM PII-LgBiT; 2 mM ATP, 2 mM Arg and 50 mM NAG; 40 min at 30 °C. The note with it: both partners purified.
Assay [9] shares this target. As to the kind of experiment: split reporter (BiFC, NanoBiT); in solution; NAGK-SmBiT titrated to 10 pM PII-LgBiT variant; no effector molecules; 40 min at 30 °C; apparent KD. The following applies: both partners purified.
For assay [10] the target is unchanged. The assay can be described thus: split reporter (BiFC, NanoBiT); in solution; NAGK-SmBiT (3-666 nM) titrated to 10 pM PII-LgBiT variant; 2 mM ATP and 2 mM arginine; 40 min at 30 °C. The following applies: both partners purified.
Assay [11] concerns the target T2, NAGK (as used in the Biolayer interferometry of ref. 17) (UniProt P73326 1-297).
T2 construct: N-acetyl-L-glutamate kinase
T2 sequence (looked up): T1 sequence (looked up)
The assay can be described thus: BLI; binding curves of ref. 17 re-calculated here by curve fitting from association and dissociation kinetics (Octet data analysis HT software); apparent KD.

B1: PII-LgBiT (wild-type PII protein from Synechocystis sp. PCC6803 fused to Large BiT) (natural protein, UniProt Q55247 1-112, looked up)
chain: MKKVEAIIRPFKLDEVKIALVNAGIVGMTVSEVRGFGRQKGQTERYRGSEYTVEFLQKLKIEIVVDEGQVDMVVDKLVSAARTGEIGDGKIFISPVDSVVRIRTGEKDTEAI
notes: PII signalling protein, Synechocystis sp; PCC 6803; LgBiT is fused at the C-terminally located Strep-tag purification linker of PII; cloned in pASK-IBA3; also called PII (WT); source: E. coli Lemo21, purified (Strep-Tactin Superflow); not shown: Strep-tag, internal (between PII and LgBiT), kept; LgBiT, C-terminal, kept
B1: the Kd in assay [1] was found to be 14.9 nM; in assay [2] it was 1.2 nM; in assay [3] it was 30.8 nM; in assay [4], 4.7 nM; in assay [5], 8.8 nM; in assay [6], 0.74 nM. The Kd in assay [7] came out at 16.5 nM; in assay [8] it was 9.5 nM; in assay [9], 12.9 nM; in assay [10], 17.8 nM.

B2: PII-S49E-LgBiT (phosphomimetic T-loop variant of PII fused to Large BiT) (natural protein, Synechocystis sp. PCC6803, UniProt Q55247 1-112, looked up)
chain: B1 chain with S49E
notes: PII signalling protein, Synechocystis sp; PCC 6803, variant S49E; Same fusion as m1 with S49E; also called S49E PII variant; source: E. coli Lemo21, purified (Strep-Tactin Superflow); not shown: Strep-tag, internal (between PII and LgBiT), kept; LgBiT, C-terminal, kept
B2: the Kd was found to be 95.3 nM in assay [3]; 10.7 nM in [4]; 155 nM in assay [5]; 3.39 nM in assay [6]; 133 nM in assay [9]; 432 nM in [10].

B3: PII-I86N-LgBiT (PII variant I86N fused to Large BiT) (natural protein, Synechocystis sp. PCC6803, UniProt Q55247 1-112, looked up)
chain: B1 chain with I86N
notes: PII signalling protein, Synechocystis sp; PCC 6803, variant I86N; Same fusion as m1 with I86N; the text once words the change as 'IIe86 to Asp86'; source: E. coli Lemo21, purified (Strep-Tactin Superflow); not shown: Strep-tag, internal (between PII and LgBiT), kept; LgBiT, C-terminal, kept
Regarding B3, the Kd amounted to 11.7 nM in assay [3]; 4.1 nM in assay [4]; 7 nM in assay [5]; 0.68 nM in [6]; 12.9 nM in [9]; 1.56 nM in assay [10].

B4: PII (as used in the Biolayer interferometry of ref. 17) (natural protein, UniProt Q55247 1-112, looked up)
chain: B1 chain
notes: PII signalling protein
As to B4, in assay [11], the Kd was 11.7 ± 0.005 nM.
